From paper PMC8825603 (Theranostics, 2022)

Legend:
Experiment in all cases: cellular equilibrium binding of GpL (luciferase)-tagged antibody variants; HEK293 cells transiently transfected with a CD40, 41BB or PD-L1 expression plasmid; increasing concentrations of GpL-tagged antibody variants (cell culture supernatants); 37 °C, 1.5 h; washed three times with ice cold PBS; binding to empty vector cells subtracted; one site specific binding fit
Conditions in all cases: partners not purified
[1] = target: T1, PDL1 (UniProt Q9NZQ7)
T1 construct: PDL1, expressed on HEK293 cells from the expression plasmid pCMV6-XL4 (Origene Technologies); also called PD1 Ligand 1; PD1L; source: HEK293, transiently transfected with a PDL1 expression plasmid (pCMV6-XL4, Origene), on cells

[2] = target: T1, PDL1; remark: listed apart in the source
[3] = target: T2, CD40 (Homo sapiens (species ), UniProt P25942)
T2 construct: CD40, expressed on HEK293 cells from an expression plasmid (gift of Pascal Schneider); also called cluster of differentiation 40; source: HEK293, transiently transfected with a CD40 expression plasmid, on cells

[4] = target: T3, 41BB (Homo sapiens (species ), UniProt Q07011)
T3 construct: 41BB, expressed on HEK293 cells from an expression plasmid (gift of Pascal Schneider); source: HEK293, transiently transfected with a 41BB expression plasmid, on cells
T3 sequence (Q07011 24-255): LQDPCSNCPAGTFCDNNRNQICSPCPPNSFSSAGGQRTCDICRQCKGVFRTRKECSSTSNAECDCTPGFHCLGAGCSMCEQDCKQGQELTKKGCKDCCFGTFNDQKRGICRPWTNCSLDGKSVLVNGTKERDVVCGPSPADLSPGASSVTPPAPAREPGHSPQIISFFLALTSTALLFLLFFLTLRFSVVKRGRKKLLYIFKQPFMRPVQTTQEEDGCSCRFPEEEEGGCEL

T1 sequence (Q9NZQ7 19-290): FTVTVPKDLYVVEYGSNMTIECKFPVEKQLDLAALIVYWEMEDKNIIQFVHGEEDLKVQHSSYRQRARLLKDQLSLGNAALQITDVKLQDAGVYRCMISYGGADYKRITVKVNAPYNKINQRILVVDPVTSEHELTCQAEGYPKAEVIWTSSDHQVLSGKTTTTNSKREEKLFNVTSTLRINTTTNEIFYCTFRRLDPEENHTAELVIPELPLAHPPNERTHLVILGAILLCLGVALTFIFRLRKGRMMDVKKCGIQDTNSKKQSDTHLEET
T2 sequence (P25942 21-277): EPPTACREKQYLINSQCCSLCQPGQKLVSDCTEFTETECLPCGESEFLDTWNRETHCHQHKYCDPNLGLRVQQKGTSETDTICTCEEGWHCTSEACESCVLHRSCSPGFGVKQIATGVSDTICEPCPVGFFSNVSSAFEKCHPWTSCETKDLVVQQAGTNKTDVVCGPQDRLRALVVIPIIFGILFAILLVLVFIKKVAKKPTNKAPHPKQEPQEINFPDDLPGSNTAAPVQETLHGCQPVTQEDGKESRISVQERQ

Binder | binding result [1] | binding result [2] | also measured
αCD40-Fab2-GpL (Fab, V domains shown, VH of the anti-CD40 antibody C; linker L6; CH1: constant heavy chain of human IgG1, aa 145-260 of GenBank AAA02914.1; numbers count on: GenBank AAA02914.1; VL of the anti-CD40 antibody C; linker L4; constant light chain, aa 105-214 of GenBank BAA97671.1; numbers count on: GenBank BAA97671.1; Bivalent Fab2 format; source: HEK293, transiently transfected (PEI), cell culture supernatant; copies: 2 + …) VH: QVQLVQSGAEVKKPGASVKVSCTASGFNIKDYYVHWVKQAPGQGLEWMGRIDPEDGDSKYAPKFQGKATMTADTSTSTVYMELSSLRSEDTAVYYCTTSYYVGTYGYWGQGTLVTVSS VL: DIQMTQSPSSLSASVGDRVTITCSASSSVSYMLWFQQKPGKAPKLLIYSTSNLASGVPSRFSGSGSGTDFTLTISSLQPEDFATYYCQQRTFYPYTFGGGTKVEIK | no binding | – | –
αCD40-N297A-GpL (antibody, V domains shown, VH of the anti-CD40 antibody C; linker L6; constant heavy chain of human IgG1, aa 145-476 of GenBank AAA02914.1, with N297A (the footnote prints 'A to N mutation at position 327'); VL of the anti-CD40 antibody C; linker L4; constant light chain, aa 105-214 of GenBank BAA97671.1; numbers count on: GenBank BAA97671.1; IgG1(N297A); also called αCD40-IgG1(N297A); source: HEK293, transiently …) VH: QVQLVQSGAEVKKPGASVKVSCTASGFNIKDYYVHWVKQAPGQGLEWMGRIDPEDGDSKYAPKFQGKATMTADTSTSTVYMELSSLRSEDTAVYYCTTSYYVGTYGYWGQGTLVTVSS VL: DIQMTQSPSSLSASVGDRVTITCSASSSVSYMLWFQQKPGKAPKLLIYSTSNLASGVPSRFSGSGSGTDFTLTISSLQPEDFATYYCQQRTFYPYTFGGGTKVEIK | no binding | – | –
α41BB-Fab2-GpL (Fab, V domains shown, VH of the anti-41BB antibody HBBK4; linker L6; CH1: constant heavy chain of human IgG1, aa 145-260 of GenBank AAA02914.1; numbers count on: GenBank AAA02914.1; VL of the anti-41BB antibody HBBK4; linker L4; constant light chain, aa 105-214 of GenBank BAA97671.1; numbers count on: GenBank BAA97671.1; Bivalent Fab2 format; source: HEK293, transiently transfected (PEI), cell culture supernatant; …) VH: QVQLQQSGAEVIKPGASVKLSCKASGYTFSSYWMHWVRQAPGQGLEWIGEINPGNGHTNYNEKFKSRATLTGDTSTSTVYMELSSLRSEDTAVYYCARSFTTARAFAYWGQGTLVTVSS VL: DIVMTQSPAFLSVTPGEKVTITCRASQTISDYLHWYQQKPDQAPKLLIKYASQSISGIPSRFSGSGSGTDFTFTISSLEAEDAATYYCQDGHSFPPTFGQGTKLEIK | – | no binding | –
α41BB-N297A-GpL (antibody, V domains shown, VH of the anti-41BB antibody HBBK4; linker L6; constant heavy chain of human IgG1, aa 145-476 of GenBank AAA02914.1, with N297A (the footnote prints 'A to N mutation at position 327'); VL of the anti-41BB antibody HBBK4; linker L4; constant light chain, aa 105-214 of GenBank BAA97671.1; numbers count on: GenBank BAA97671.1; IgG1(N297A); also called α41BB-IgG1(N297A); source: HEK293, transiently …) VH: QVQLQQSGAEVIKPGASVKLSCKASGYTFSSYWMHWVRQAPGQGLEWIGEINPGNGHTNYNEKFKSRATLTGDTSTSTVYMELSSLRSEDTAVYYCARSFTTARAFAYWGQGTLVTVSS VL: DIVMTQSPAFLSVTPGEKVTITCRASQTISDYLHWYQQKPDQAPKLLIKYASQSISGIPSRFSGSGSGTDFTFTISSLEAEDAATYYCQDGHSFPPTFGQGTKLEIK | – | no binding | –
αPDL1-N297A-GpL (antibody, V domains shown, VH of the anti-PDL1 antibody Avelumab; linker L6; constant heavy chain of human IgG1, aa 145-476 of GenBank AAA02914.1, with N297A (the footnote prints 'A to N mutation at position 327'); VL of the anti-PDL1 antibody Avelumab; linker L4; constant light chain, aa 105-214 of GenBank BAA97671.1; numbers count on: GenBank BAA97671.1; IgG1(N297A); also called αPDL1-IgG1(N297A); parental anti-PDL1 …) VH: EVQLLESGGGLVQPGGSLRLSCAASGFTFSSYIMMWVRQAPGKGLEWVSSIYPSGGITFYADTVKGRFTISRDNSKNTLYLQMNSLRAEDTAVYYCARIKLGTVTTVDYWGQGTLVTVSS VL: QSALTQPASVSGSPGQSITISCTGTSSDVGGYNYVSWYQQHPGKAPKLMIYDVSNRPSGVSNRFSGSKSGNTASLTISGLQAEDEADYYCSSYTSSSTRVFGTGTKVTVL | – | – | binding result [3]: no binding; binding result [4]: no binding
